Patent US20230293578A1, “TREATMENT OF BACTERIAL VAGINOSIS” (priority 2020, published 2023)

What was measured:
G. vag strain 14.2 = assay: antibiotic synergy testing, checkerboard cross dilution method in broth cultures; format: cell-based, Gardnerella vaginalis; details: 4 mg/mL bLF, 24 hr
Gardnerella vaginalis = assay: G. vaginalis growth in liquid culture, viability as CFU
Method: G. vag isolates were recovered from the vaginal discharge of BV positive patients and identification at the species level was performed by species-specific PCR using the primer pairs G. vaginalis V2-R1 and G. vaginalis V6-U2.
Cells were grown in aerobic conditions at 37° C. at 5% CO2 in PMD medium. PMD medium contains: proteose peptone No. 3 (BD211693) 15 g/L, maltone 2 g/L, dextrose 1 g/L, Na2HPO2 1 g/L, NaH2PO4 1 g/L adjusted to pH6.8. High Iron PMD medium additional contains 500 mg/L human hemoglobin. No Iron PMD is prepare by treating PMD medium with Chelex® 100 Chelating Resin (Bio-Rad Cat #1432832) then adding back 0.1 mM magnesium sulfate, 0.1 mM calcium chloride, and 10 μM zinc chloride. Low Iron PMD medium is prepared by adding 10 μM ferric ammonium citrate (FAC) to No Iron PMD. Overnight broth cultures of G. vaginalis were grown in High Iron PMD, centrifuged, resuspended No Iron PMD, incubated for 2 hr at 37° C. then diluted to 2.5×10^7 cells/mL in Low Iron PMD. Cells were grown in liquid culture for 24-48 hr then plated on agar to assess viability (expressed as colony forming units per mL (CFU)). Bulk bLF was dissolved in water and diluted in culture medium.

[1] = in vivo
Excerpt: Zinc levels in vaginal fluid of BV have also been measured. Recommended zinc levels for bacterial growth are not readily available as zinc toxicity is low and the capacity of bacteria to store zinc is high, thus contributing to a very wide range of acceptable zinc levels that will support bacterial growth. […] Furthermore, in an L. iners based microbiome that has not progressed to full blown BV, a significant increase in calprotectin is also seen. Thus, when an altered microbiome takes hold, the body appears to be an active conspirator in discouraging L. Crispatus-type re-growth.
The remainder is expelled. This means that free iron is released from a dose of bovine lactoferrin that is partially saturated with iron and may become accessible to bacteria. Even if the released iron is immediately bound by the remaining lactoferrin, this proteolysis will inevitably increase the overall saturation percentage of the remaining bovine lactoferrin. In turn, it will also increase the saturation of human lactoferrin, since bovine and human forms exist in relative equilibrium considering that their bindings constants are similar. It also follows, that lowering the initial iron saturation of bovine lactoferrin will lower human lactoferrin's iron saturation levels and thus provide the least access to the bacterial binding proteins that scavenge iron from human lactoferrin. […]

B1: bovine lactoferrin (protein, UniProt P24627 20-708, looked up)
Lactotransferrin: APRKNVRWCTISQPEWFKCRRWQWRMKKLGAPSITCVRRAFALECIRAIAEKKADAVTLDGGMVFEAGRDPYKLRPVAAEIYGTKESPQTHYYAVAVVKKGSNFQLDQLQGRKSCHTGLGRSAGWIIPMGILRPYLSWTESLEPLQGAVAKFFSASCVPCIDRQAYPNLCQLCKGEGENQCACSSREPYFGYSGAFKCLQDGAGDVAFVKETTVFENLPEKADRDQYELLCLNNSRAPVDAFKECHLAQVPSHAVVARSVDGKEDLIWKLLSKAQEKFGKNKSRSFQLFGSPPGQRDLLFKDSALGFLRIPSKVDSALYLGSRYLTTLKNLRETAEEVKARYTRVVWCAVGPEEQKKCQQWSQQSGQNVTCATASTTDDCIVLVLKGEADALNLDGGYIYTAGKCGLVPVLAENRKSSKHSSLDCVLRPTEGYLAVAVVKKANEGLTWNSLKDKKSCHTAVDRTAGWNIPMGLIVNQTGSCAFDEFFSQSCAPGADPKSRLCALCAGDDQGLDKCVPNSKEKYYGYTGAFRCLAEDVGDVAFVKNDTVWENTNGESTADWAKNLNREDFRLLCLDGTRKPVTEAQSCHLAVAPNHAVVSRSDRAAHVKQVLLHQQALFGKNGKNCPDKFCLFKSETKNLLFNDNTECLAKLGGRPTYEEYLGTEYVTAIANLKKCSTSPLLEACAFLTR
notes: bulk bLF dissolved in water for in vitro tests
Which results are given for B1?
growth inhibited (G. vag strain 14.2): 19.3%; concentration range of dose-dependent inhibition of G. vag growth (Gardnerella vaginalis; G. vag isolate 14.2, Low Iron PMD, FIG. 2): 0.5 to 32 mg/mL; effect on G. vaginalis growth (Gardnerella vaginalis; iron-containing bovine lactoferrin preparation): growth suppression; share of a vaginal dose broken down via vaginal or bacterial proteases [1]: ≤ 20%
